Marks after values point to notes of the source that are not given here.
Tests used:
Format in all cases: cell-based
human NaV1.5 channel = biological target: T1, human NaV1.5 channel (Homo sapiens, UniProt Q14524); assay: Whole-cell patch-clamp electrophysiology in HEK293 cells stably expressing NaV1.5 (HEK-NaV1.5); settings: HEK-NaV1.5 cells, 500 nM peptide vs control
T1 construct: expressed in transfected cells; host or cells: HEK293 cells stably expressing human NaV1.5 (G418 selection)
Description: HEK293 cells were maintained in DMEM and F-12 (Invitrogen, Carlsbad, CA), supplemented with 0.05% glucose, 0.5 mM pyruvate, 10% fetal bovine serum, 100 units/ml penicillin, and 100 μg/ml streptomycin (Invitrogen), and incubated at 37° C. with 5% CO2. HEK293 cells stably expressing the human NaV1.5 channel (hereafter referred to as HEK-NaV1.5 cells) were maintained similarly except for the addition of 500 μg/ml G418 (Invitrogen) to maintain stable NaV 1.5 expression. Cells were grown to 80-90% confluence, washed and re-plated at very low density prior to electrophysiological recordings.
(§1) Current densities were obtained by dividing Na^+ current (INa^+) amplitude by membrane capacitance. Current-voltage relationships were generated by plotting current density as a function of the […].
(§2) Statistics were calculated as mean and standard error of the mean (mean SEM) using Prism 7 (La Jolla, CA). The statistical significance of observed differences among groups was determined by Student's t-test or for two group comparisons significance was tested with unpaired. Electrophysiological data analysis was performed using Clampfit 9 software (Molecular Devices).
(§3) To test whether Peptide 1, 3, 7 and 8 had any modulatory effects on NaV 1.5-mediated Na^+ currents, we used whole-cell patch-clamp electrophysiology in HEK293 cells stably expressing NaV1.5 (HEK-NaV1.5) channels; each group was either treated with peptides 1, 3, 7 and 8 (500 nM from a stock solution dissolved in H2O or DMSO) or H2O and 0.1% DMSO alone (control).

NaV1.6 = biological target: T2, NaV1.6 (Homo sapiens, UniProt Q9UQD0); assay: Whole-cell patch-clamp electrophysiology in HEK293 cells stably expressing NaV1.6 (HEK-NaV1.6); settings: for effect on NaV1.6 currents / Peak current density, Nav1.6 (Treatment): HEK-NaV1.6 cells; for effect on NaV1.6 currents: 500 nM peptide vs control; for Peak current density, Nav1.6 (Treatment): mean ± SEM (n)
T2 construct: expressed in transfected cells; host or cells: HEK293 cells stably expressing NaV1.6
T2 sequence (Q9UQD0 whole entry): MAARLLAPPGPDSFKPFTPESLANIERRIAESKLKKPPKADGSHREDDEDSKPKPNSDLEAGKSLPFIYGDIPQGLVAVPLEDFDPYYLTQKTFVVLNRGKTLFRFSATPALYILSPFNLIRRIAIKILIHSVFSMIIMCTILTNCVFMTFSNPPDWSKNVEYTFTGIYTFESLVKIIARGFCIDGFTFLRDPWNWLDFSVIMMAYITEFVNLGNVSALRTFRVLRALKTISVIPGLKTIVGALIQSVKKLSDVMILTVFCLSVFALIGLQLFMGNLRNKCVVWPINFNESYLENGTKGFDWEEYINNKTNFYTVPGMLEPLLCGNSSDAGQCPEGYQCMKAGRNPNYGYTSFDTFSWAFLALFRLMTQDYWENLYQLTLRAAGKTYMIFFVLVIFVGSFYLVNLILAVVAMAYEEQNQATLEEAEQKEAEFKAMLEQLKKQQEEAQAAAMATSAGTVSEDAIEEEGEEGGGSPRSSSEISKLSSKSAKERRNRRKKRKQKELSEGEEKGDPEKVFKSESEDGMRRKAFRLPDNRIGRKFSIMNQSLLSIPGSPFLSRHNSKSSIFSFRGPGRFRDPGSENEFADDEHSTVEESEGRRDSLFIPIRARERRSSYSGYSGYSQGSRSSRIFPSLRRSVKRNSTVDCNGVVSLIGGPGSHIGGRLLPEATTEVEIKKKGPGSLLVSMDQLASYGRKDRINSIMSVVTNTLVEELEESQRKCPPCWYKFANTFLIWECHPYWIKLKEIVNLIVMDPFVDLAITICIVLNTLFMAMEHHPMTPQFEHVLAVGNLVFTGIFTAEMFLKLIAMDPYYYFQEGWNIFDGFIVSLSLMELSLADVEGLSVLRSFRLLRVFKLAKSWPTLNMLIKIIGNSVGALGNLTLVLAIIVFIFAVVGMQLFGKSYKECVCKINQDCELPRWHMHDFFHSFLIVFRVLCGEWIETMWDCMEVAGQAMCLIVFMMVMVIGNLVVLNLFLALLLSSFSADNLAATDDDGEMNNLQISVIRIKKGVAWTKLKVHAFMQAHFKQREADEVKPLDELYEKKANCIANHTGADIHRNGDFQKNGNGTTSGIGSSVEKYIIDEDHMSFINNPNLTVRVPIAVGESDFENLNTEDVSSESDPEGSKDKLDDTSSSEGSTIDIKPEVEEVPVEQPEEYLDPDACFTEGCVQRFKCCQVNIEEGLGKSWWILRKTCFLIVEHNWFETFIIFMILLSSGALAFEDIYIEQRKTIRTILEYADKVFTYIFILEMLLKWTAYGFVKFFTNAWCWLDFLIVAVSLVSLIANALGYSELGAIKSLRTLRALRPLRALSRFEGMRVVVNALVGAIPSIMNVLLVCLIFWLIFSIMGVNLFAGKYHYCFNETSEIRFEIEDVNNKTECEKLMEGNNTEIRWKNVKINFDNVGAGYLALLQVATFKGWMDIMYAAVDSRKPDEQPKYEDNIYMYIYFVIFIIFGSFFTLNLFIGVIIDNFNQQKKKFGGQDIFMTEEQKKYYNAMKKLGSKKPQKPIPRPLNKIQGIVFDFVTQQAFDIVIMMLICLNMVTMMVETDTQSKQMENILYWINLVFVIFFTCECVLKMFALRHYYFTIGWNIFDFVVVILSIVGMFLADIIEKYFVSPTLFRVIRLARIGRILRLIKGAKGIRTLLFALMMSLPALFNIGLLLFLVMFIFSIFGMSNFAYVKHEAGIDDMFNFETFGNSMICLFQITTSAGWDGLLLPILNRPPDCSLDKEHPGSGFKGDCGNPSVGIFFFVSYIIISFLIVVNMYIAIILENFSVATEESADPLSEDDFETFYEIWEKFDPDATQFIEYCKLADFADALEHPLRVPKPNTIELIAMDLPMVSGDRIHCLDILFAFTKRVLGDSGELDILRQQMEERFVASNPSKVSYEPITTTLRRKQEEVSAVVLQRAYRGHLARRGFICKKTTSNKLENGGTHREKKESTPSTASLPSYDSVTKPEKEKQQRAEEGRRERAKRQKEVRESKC
Description: HEK-NaV1.6 cells were plated at low density on glass cover slips for 3-4 hours and subsequently transferred to the recording chamber. Recordings were performed at room temperature (20-22° C.) after 48 h to thaw them using a MultiClamp 200B and 700B amplifier (Molecular Devices, Sunnyvale, CA). The composition of recording solutions consisted of the following salts; extracellular (mM): 140 NaCl, 3 KCl, 1 MgCl2, 1 CaCl2), 10 HEPES, 10 glucose, pH 7.3; intracellular (mM): 130 CH3O3SCs, 1 EGTA, 10 NaCl, 10 HEPES, pH 7.3. Membrane capacitance and series resistance were estimated by the dial settings on the amplifier and compensated for electronically by 70-75%. Data were acquired at 20 kHz and filtered at 5 kHz prior to digitization and storage. All experimental parameters were controlled by Clampex 9.2 software (Molecular Devices) and interfaced to the electrophysiological equipment using a Digidata 1200 analog-digital interface (Molecular Devices). Voltage-dependent inward currents for HEK-NaV 1.6 cells were evoked by depolarization to test potentials between −100 mV and +60 mV from a holding potential of −70 mV followed by a voltage pre-step pulse of −120 mV (Nar 1.6).
as §1, §2
as §3, with “1.6-mediated” for “1.5-mediated”, “NaV1.6 (HEK-NaV1.6)” for “NaV1.5 (HEK-NaV1.5)”, “(control). […] However, peptide 7 potentiates the NaV1.6-mediated transient Na^+ currents (INa+), and were not statistically different compared to control (FIG. 17 A-C and Table 1).” for “(control).”

NaV1.7 = biological target: T3, NaV1.7 (Homo sapiens, UniProt Q15858); assay: Patch-clamp electrophysiology of HEK-NaV1.7 stable cells; settings: HEK-NaV1.7 cells, 500 nM peptide
T3 construct: expressed in transfected cells; host or cells: HEK293 (human embryonic kidney) cells stably expressing NaV1.7
Description: HEK-NaV1.7 stable cell lines were plated at low density on glass cover slips for 3-4 hours and subsequently transferred to the recording chamber. Recordings were performed at room temperature (20-22° C.) […] using a MultiClamp 700B amplifier (Molecular Devices, Sunnyvale, CA). The composition of recording solutions consisted of the following salts: extracellular (mM): 140 NaCl, 3 KCl, 1 MgCl2, 1 CaCl2), 10 HEPES, 10 glucose, pH 7.3; intracellular (mM): 130 CH3O3SCs, 1 EGTA, 10 NaCl, 10 HEPES, pH 7.3. Membrane capacitance and series resistance were estimated by the dial settings on the amplifier and compensated for electronically by 70-80%. Data were acquired at 20 kHz and filtered at 5 kHz prior to digitization and storage. All experimental parameters were controlled by Clampex 9.2 software (Molecular Devices) and interfaced to the electrophysiological equipment using a Digidata 1200 analog-digital interface (Molecular Devices). Voltage-dependent inward currents for HEK-NaV1.7 cells were evoked by depolarizations to test potentials between −100 mV and +60 mV from a holding potential of −70 mV followed by a voltage pre-step pulse of −120 mV (NaV1.7). Steady-state (fast) inactivation of NaV channels was measured with a paired-pulse protocol. From the holding potential, cells were stepped to varying test potentials between −120 mv (Nar 1.7) and +20 mV (pre-pulse) prior to a test pulse to −20 mV.
Current densities were obtained by dividing Na+ current (INa) amplitude by membrane capacitance. Current-voltage relationships were generated by plotting current density as a function of the […]. Conductance (GNa) was calculated by the following equation:
GNa=INa/(Vm−Erev) • where INa is the current amplitude at voltage Vm, and Erev is the Na^+ reversal potential.
To test whether given peptides (10 in total, listed below) had modulatory effects on NaV1.7-mediated Na^+ currents, we used patch-clamp electrophysiology of human embryonic kidney cells stably expressing NaV1.7 (HEK-NaV1.7).

T1 sequence (Q14524 whole entry): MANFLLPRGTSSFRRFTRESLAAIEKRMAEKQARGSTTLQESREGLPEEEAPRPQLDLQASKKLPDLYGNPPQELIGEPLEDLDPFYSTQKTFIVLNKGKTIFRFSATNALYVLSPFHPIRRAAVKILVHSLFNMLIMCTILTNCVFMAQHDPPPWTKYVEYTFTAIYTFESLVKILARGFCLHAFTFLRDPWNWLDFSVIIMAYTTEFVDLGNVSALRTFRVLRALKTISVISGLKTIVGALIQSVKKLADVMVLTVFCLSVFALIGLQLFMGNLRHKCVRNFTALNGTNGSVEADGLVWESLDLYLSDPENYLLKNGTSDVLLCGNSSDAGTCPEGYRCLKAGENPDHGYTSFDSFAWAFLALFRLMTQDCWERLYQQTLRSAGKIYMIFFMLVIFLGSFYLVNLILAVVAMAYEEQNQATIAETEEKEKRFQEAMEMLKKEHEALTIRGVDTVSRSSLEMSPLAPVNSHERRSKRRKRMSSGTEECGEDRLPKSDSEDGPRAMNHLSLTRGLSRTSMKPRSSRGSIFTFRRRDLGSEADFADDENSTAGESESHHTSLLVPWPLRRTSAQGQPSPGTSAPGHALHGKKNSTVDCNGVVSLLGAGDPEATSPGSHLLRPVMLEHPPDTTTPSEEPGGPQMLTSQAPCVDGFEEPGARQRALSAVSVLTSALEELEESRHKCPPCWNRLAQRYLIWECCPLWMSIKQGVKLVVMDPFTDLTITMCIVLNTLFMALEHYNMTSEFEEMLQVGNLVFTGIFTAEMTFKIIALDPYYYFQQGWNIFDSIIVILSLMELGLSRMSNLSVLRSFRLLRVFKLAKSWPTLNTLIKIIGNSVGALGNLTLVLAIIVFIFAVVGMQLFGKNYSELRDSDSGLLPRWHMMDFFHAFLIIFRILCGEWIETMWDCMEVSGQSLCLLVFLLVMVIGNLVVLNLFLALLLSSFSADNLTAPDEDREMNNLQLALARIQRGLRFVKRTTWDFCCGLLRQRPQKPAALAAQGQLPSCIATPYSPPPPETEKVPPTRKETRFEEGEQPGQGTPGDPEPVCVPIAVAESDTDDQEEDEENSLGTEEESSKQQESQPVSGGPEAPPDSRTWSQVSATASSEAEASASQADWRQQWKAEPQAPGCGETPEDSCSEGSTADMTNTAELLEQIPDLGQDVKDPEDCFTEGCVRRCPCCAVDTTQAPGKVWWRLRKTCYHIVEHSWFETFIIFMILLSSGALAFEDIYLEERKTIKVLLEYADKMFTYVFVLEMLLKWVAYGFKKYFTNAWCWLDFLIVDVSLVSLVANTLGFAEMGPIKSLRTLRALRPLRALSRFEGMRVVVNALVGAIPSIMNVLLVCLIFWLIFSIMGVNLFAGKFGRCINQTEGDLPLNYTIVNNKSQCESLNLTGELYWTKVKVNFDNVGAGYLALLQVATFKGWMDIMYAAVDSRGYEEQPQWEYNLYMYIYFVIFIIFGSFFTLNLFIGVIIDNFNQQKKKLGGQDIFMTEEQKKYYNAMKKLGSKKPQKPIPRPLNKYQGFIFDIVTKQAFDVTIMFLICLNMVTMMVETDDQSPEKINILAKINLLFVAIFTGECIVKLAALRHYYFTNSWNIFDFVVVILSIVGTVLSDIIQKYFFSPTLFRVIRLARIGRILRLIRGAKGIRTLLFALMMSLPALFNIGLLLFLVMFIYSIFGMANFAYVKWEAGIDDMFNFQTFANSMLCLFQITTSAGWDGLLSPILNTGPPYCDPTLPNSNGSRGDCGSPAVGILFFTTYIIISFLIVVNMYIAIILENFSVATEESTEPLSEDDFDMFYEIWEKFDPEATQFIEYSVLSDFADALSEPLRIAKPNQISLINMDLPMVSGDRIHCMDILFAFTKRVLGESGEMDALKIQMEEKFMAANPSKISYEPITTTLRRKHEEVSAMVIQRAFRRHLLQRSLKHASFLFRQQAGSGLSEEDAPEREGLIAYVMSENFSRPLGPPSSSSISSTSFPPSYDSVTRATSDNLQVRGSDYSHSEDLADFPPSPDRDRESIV

Row | Sequence | effect on NaV1.5 currents (human NaV1.5 channel) | peak current density, treatment (text of b104) (NaV1.6; 500 nM peptide, control 194.86, n=8, treatment n=7, sentence cites FIG. 14A-C) | effect on NaV1.6 currents (NaV1.6) | effect on NaV1.6 currents (NaV1.6; listed as peptide 8) | Peak current density, Nav1.6 (Treatment) (NaV1.6; 500 nM peptide) | blockage of the NaV1.7 sodium channel (NaV1.7) | effect on NaV1.6 currents (NaV1.6; listed as peptide 1) | effect on NaV1.6 currents (NaV1.6; listed as peptide 3)
1 | DCLGFMRKCLSTTDLDDDWNCCRPNLVCSRTHKWCKYVF (Synthetic Peptide 8) | no effects | 104.78 | no effects | no statistically significant effect | 59.75 ± 5.4 (6)^NS | substantial blockage | – | –
2 | IGEKVTIRLITSTNINDDFNIYQQKPGEPPKLL (Synthetic Peptide 7) | no effects | – | potentiates | – | 121.14 ± 16.6 (10)^c | substantial blockage | – | –
3 | SDEIPATFGGGTDAGL (Synthetic Peptide 1) | no effects | – | suppressed | – | 25.65 ± 5.2 (13)^a | substantial blockage | suppresses | –
4 | DCLGLFRKCIPDMLKCCRFNLVCSRLHKWCKYVF (Synthetic Peptide 3) | suppressed | – | suppressed | – | 25.32 ± 4.1 (6)^b | substantial blockage | – | suppresses

From patent US20230374084A1, “POTENT AND SELECTIVE INHIBITORS OF NAV1.7” (ALDEVRON, LLC, priority 2020, published 2023)
